Test [1] addresses A1/A3-C1-C2 part of thrombin-activated cFVIII-BDD (canine) (UniProt O18806). Put plainly: cell-based or functional assay.
Test [2] has as its target A1/A3-C1-C2 part of thrombin-activated human FVIII-BDD R1645H (human) (UniProt P00451). Put plainly: cell-based or functional assay.
Chain of UniProt P00451 (P00451 20-391, chain 1 of 2): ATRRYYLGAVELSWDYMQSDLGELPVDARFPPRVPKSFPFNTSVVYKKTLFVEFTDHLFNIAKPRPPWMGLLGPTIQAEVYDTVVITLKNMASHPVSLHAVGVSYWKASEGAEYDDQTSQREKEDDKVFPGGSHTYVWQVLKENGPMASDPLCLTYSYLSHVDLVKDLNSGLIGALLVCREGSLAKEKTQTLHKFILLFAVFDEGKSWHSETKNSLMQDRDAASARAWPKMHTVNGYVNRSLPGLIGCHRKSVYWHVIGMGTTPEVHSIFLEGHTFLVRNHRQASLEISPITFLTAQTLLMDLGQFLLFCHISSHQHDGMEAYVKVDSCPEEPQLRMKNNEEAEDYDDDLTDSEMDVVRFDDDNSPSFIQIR
Chain of UniProt P00451 (P00451 1709-2351, chain 2 of 2): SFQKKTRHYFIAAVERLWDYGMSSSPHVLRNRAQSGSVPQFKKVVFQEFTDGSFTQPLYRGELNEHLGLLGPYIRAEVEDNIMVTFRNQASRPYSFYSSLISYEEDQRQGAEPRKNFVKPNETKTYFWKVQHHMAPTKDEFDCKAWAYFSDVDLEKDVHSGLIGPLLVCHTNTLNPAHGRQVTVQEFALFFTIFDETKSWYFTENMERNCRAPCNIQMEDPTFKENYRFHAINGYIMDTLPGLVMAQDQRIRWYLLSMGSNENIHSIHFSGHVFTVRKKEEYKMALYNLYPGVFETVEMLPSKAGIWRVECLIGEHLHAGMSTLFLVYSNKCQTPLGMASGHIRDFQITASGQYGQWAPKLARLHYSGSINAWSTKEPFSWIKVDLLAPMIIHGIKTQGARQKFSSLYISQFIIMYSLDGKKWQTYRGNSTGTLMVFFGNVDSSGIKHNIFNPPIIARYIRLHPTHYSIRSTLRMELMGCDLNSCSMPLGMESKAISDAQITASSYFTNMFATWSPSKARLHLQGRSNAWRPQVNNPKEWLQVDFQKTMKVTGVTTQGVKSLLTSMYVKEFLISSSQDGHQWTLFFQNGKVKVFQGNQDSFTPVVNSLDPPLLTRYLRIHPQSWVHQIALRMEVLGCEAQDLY

Chain of UniProt O18806 (O18806 20-385, chain 1 of 2): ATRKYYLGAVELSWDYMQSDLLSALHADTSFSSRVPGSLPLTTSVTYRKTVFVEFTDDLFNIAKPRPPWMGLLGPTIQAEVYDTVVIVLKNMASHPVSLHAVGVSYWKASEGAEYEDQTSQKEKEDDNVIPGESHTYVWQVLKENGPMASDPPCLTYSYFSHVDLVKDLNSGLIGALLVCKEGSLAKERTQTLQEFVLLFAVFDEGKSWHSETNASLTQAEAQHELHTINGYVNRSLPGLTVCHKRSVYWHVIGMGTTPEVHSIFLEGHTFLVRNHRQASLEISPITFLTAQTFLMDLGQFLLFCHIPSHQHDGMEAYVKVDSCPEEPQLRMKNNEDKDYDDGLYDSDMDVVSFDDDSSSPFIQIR
Chain of UniProt O18806 (O18806 1701-2343, chain 2 of 2): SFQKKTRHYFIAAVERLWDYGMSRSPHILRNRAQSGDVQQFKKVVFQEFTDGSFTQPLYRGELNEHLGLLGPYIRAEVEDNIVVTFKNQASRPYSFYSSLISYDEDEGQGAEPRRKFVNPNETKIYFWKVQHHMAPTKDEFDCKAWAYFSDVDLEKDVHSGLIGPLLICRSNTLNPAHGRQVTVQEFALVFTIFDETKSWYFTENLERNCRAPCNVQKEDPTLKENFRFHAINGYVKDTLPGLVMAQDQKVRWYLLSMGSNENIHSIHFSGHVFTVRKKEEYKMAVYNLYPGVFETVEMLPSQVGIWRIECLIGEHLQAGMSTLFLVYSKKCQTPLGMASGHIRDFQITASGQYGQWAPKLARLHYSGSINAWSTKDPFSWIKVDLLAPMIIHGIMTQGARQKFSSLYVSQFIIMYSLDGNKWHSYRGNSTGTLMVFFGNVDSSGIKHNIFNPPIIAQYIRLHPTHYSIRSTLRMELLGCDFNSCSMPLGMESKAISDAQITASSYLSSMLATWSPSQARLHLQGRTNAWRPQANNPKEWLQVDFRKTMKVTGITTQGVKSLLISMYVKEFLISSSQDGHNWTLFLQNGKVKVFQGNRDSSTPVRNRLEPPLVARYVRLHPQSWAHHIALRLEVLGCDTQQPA

Turning to “A2 domain of thrombin-activated cFVIII-BDD (from UniProt O18806 386-753)”, the half-life of activated FVIII cofactor activity after thrombin activation (purified component Xase assay or clotting assay) (fold (against hFVIII)) in test [1] came to 3.

With “A2 domain of thrombin-activated human FVIII-BDD R1645H (from UniProt P00451 392-759)”, the half-life of activated FVIII (Xase assay, A2-domain stability) (fold (against WT hBFVIII)) in test [2] came out at 3.

The values above are taken from patent publication US10442850.
